In the experiment the target is T1, α4 integrin (CD49d) on JeKo-1 cells (Homo sapiens, endogenous on JeKo-1 cells, UniProt P13612).
T1 construct: integrin alpha-4 (CD49d); also called α4 chain of α4β1 integrin (VLA-4) and α4β7 integrin (LPAM-1); source: endogenous, on JeKo-1 cells
Briefly: flow cytometry on cells; Ntz-01 premixed with natalizumab 1 h on ice in 5% FBS/DPBS/0.05% NaN3, then CD49d+ JeKo-1 cells 20 m on ice; cell-bound natalizumab detected with anti-human IgG4 Fc Alexa Fluor 647. Particulars: one partner purified.

B1: Natalizumab (antibody, V domains shown)
VH: QVQLVQSGAEVKKPGASVKVSCKASGFNIKDTYIHWVRQAPGQRLEWMGRIDPANGYTKYDPKFQGRVTITADTSASTAYMELSSLRSEDTAVYYCAREGYYGNYGVYAMDYWGQGTLVTVSS
VL: DIQMTQSPSSLSASVGDRVTITCKTSQDINKYMAWYQQTPGKAPRLLIHYTSALQPGIPSRFSGSGSGRDYTFTISSLQPEDIATYYCLQYDNLWTFGQGTKVEIK
notes: humanized heavy-chain variable region; light chain; IgG4; also called Tysabri; source: obtained from the UCSD Moores Cancer Center Pharmacy
Consider B1, for which the binding result is listed as “binds”.

For the origin of these results see paper PMC6160459 (Scientific Reports, 2018).
